Measurements reported in a protein production outcome set (Wang et al. 2014).

Assay: label from the status in PepcDB records
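Also: failed if final PepcDB status was selected cloned or expressed and not failed if soluble or beyond.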

**Q.** For “MSRYIEAGLSDIGTLGEYVAERPNKGFEPARRRAGVSHTTVSGPKLAVAVMAVSAVCCPCGCQCVLVTPLSPRSFTLCAHIIDTMNTLVDGEWRTDAYETTNEDGAFDRQDTTFRDRVEDDPDARFQPEAGRYHLYACRACPWAHRILVARKLLGLEDAITVDYVDPFRGEDGWQFTPEKAGCTPDTVNGSDYLREVYVEADPDATCRVTVPVLWDKQEETIVNNESEEILRMLDTEFDDVSDNDVDLYPEGYQDEVDRIIDDIYEPINNGVYRSGFADSQSAYDEAVEELFDALDHWDTVLEDQRFLAGDRLTEADICLFTTLVRFDEVYHTHFMCNHKLIREYDNLWPYLRDLYQLPGVAETVNMDHITEHYYTTHPDVSPKRIVPMGPDPDFEAVHDRDELPGDLPETLFPTA”, which protein production is on record?
**A.** Its protein production is “failed”.

**Q.** Which protein production does the source give for “MSSACDAGDHYPLHLLVWKNDYRQLEKELQGQNVEAVDPRGRTLLHLAVSLGHLESARVLLRHKADVTKENRQGWTVLHEAVSTGDPEMVYTVLQHRDYHNTSMALEGVPELLQKILEAPDFYVQMKWEFTSWVPLVSRICPNDVCRIWKSGAKLRVDITLLGFENMSWIRGRRSFIFKGEDNWAELMEVNHDDKVVTTERFDLSQEMERLTLDLMKPKSREVERRLTSPVINTSLDTKNIAFERVFRVLKLTLLQLTVCS” here?
**A.** The protein production was “failed”.

**Q.** With “MSSAQVNGISKRLIVESPNVKLEDGVLESRFTYRKNHFEHRADGLHVTPKEHDYSFKTVLKPRKTGLLLVGLGGNNGSTAVGSIFANQYAMTWRTKEGHSQANYFGSVTQTATVHLGYDSATQNQIFVPFKDIVPILSPNDLIISGWDISDSNLYEAMGRAKVFEPELQEKLRPFMEPIVPLPSIYYPDFIASNQGDRANNVIPGDNKLEHLEHIRADIRKFKQEHELECVIVLWTANTERYTDVRQGLNATADEIMESIRVNEDEVSPSNIFAVASILEGAHYINGSPQNTLVPGLIELAERHKVFVGGDDFKSGQTKFKSAFVDFLVSSGMKPESIVSYNHLGNNDGKNLSEARQFRSKEISKSSVVDDMVKSNQILFPDAKNPDYCVVIKYVPYVADSKRAMDEYICSIFMGGKQTFVVHNTCEDSLLASPLIYDLAILTELASRVSYKVDDEYKPFHSVLSILSLLLKAPVVPPGTPISNAFMRQFSTLTKLVTALAGFPSDTDMQIEFFTQLPAAKSKSQ” as the sequence, how does the protein production read?
**A.** The protein production was “not failed”.

**Q.** For “MSSARLVIAGLNGGTGKTILSLGTVRALTNAGHSVKPFKKGPDYIDAEWLGLAAGRAATNLDPFFLDAARLQSLFLHASAGASISIIEGNRGLYDGRDVTGSCSTAELARILDSPVVLAMDCTKMTRTAAAILSGVAAFEPGVKLAGVVLNRTANERHRSMLRQCIEHYTDIPVLGALPRLRDNPIPERHMGLVSDREFAQCAGELDRVAQFVAQHVDVERMAEIARSAQPLASNEPFWPVVAEGDGVRPRIGYVRDAALWFYYEENLEALRQAGADLVELRIIDGDPWPTLDGLYLGGGFPETLASELSACRERLAGIREAALAGLPVYAECGGFMVLGESIVMDGVEYPMSGVFPVQTVFHPKPQGLGYVEAEVVAENPFFPQGMVFRGHEFHYSACRPRDGGAVTHALRLNPGTGMGGGADGLVQANTFAAYTHIFGPAVQGWAERFVRAARGHRDQLNKGTDLSLEHHHHHH”, which protein production is on record?
**A.** Its protein production is “failed”.

**Q.** With “MSSCCAAEAKNASERKLLWIVLILNFSMFVIEFIAGWLANSSGLLADSLDMLADAAVYSLSLYAVGKSLLYKGRAALANGYLQLSLGLLVLVDVARRIWLGSEPQSELMLSIGFMALIVNMICFVLLYQFRQGDVNLKASWICSRNDMLANIGIIISAVLVGQFDAAWPDWVIGSVIAGIVIHSSLAIINEAKVSIQSDAVADKNRT” as the sequence, how does the protein production read?
**A.** The protein production was “failed”.

**Q.** For “MSSCGCAYDILKYQLVIKGNRFNEESEQSMTETTENTVNLPYRNPKLPTEERIADLLGRMTLEEKVGQMMQLDARSGDLDDLIVNKHVGSILHTSPSDLPKAVETVNAKTRLGIPLVIGDDCIHGYSFWPGATIFPEQLGMATTWDSEKVQAAGRATAEEVSATGVHWTFSPVLCIARDTRWGRVGETFGEDPYLIGEMASSIVKGYQGGAKAGEPLAKDAILACAKHFAGYSETQGGRDASEADLSHRKLESWFLPPFERVAKEGCGTFMLGYESIEGVPVTFNKWLLSDKLRGAWNYQGTLITDWDNVGRSVWEQKVKPDYVQAAADAVKSGNDLVMTTPKFYEGAIEAVKTGLLDESLIDAAVARILALKFRLGLFEDPRLPDQKRIDAVIGSEEHQQLNLEVAREAVALLKNDGSLPFNVAGAKRIAVVGPLADDVQTQLGDWAGSSGQINWMPDGHPREMITTVLDGFKQLAPEGCEVVYSRGANIVDLVPDPEGEFYPDGQPRPKIGVSAKIDRALLGEAVENARKSDLIVAVVGDVIQAIGEGCSTATLELLGGQNALIDALSNVARETGKPFVVVLVSSKPQVLPASVIGTNGVIVDETPAEGTSALLWAPSPGMKGGQAIAEIILGETEPSGRLPITFPRHAGQLPVYYNQIRGQHGNRYADLTQNPAFAFGEGLSYTTFEYGDPTITNVPESGIFAETDTVHAEITLTNTGDRKGTEVVQLYIGDIVTSYSWTDRELKAFQRVELEPGKSKTVAFDIPVSDCTIVDSEANRIVEPGEFEVLIGHSSRREHLKRTTFTVA”, which protein production is on record?
**A.** Its protein production is “failed”.

**Q.** For “MSSDAVSKYTPGIYRTSIRLNNNTFDVEVTVDQDQIQSIHLANLSESTSAMFPLVEPVLDSLSSQIYSGQSLDDLEYSSDQKYTALMLIHAIDEAVTKAEADLEHHHHHH”, which protein production is on record?
**A.** Its protein production is “not failed”.

**Q.** For “MSSFFSVLLVLGGLIFFHELGHYLAARVLGIGVHTFSLGFGPRIFGWRSGQTDYRLSLIPLGGYVSLAGESDDEIPEGFTKGQMFSARPAWHRLIVIAAGPVFNLLLAWFIYWGLTFVHGQFIVLPEVGKVLEGGPAAAAGVQSGDRIVAIDGVSIERWDQVSDAIAASKGAPVTLSLTRNEGQHELRIVPEHRTRKTIFGDEEDAFLIGIQASGATMTLPQTPVEAAVTGARQTWTMIAMTGKGVVKLFERVVPLDTVGGPIMIAQMVSREAKDSGITGVLALAALISINLGLLNLLPIPVLDGGHIIFLGLEMLFRRPVPQKVQEVTTRMGLVLLLGLMFLATYNDIVRIGQ”, which protein production is on record?
**A.** Its protein production is “failed”.

**Q.** For “MSSKNTAEVILGGKVIKLGGYESEEYLQRVASYINNKITEFNKEESYRRMSAELRTDMMYLNIADDYFKAKKMADSLSLDIENKDKEIYDLKHELIAAQIKAESSAKEIKELKSEINKYQKNIVKLETELNDSKK”, which protein production is on record?
**A.** The protein production was “not failed”.

**Q.** With “MSSLLYARVRANARFQQLVARRNRFTLSLFVLILATFYGYIGLVSFWPELIARRLAQGSNMTVGVAAGAFLFVFFCALSAFYVYRANGEFDSLTQALLSGLEEEQGA” as the sequence, how does the protein production read?
**A.** Its protein production is “failed”.

**Q.** For “MSSLTARWHRSIQEIPEQHWQALVSDHAIPFYRWSWLEALESSGSIIPEQGWQPLHLALWRGDVPIAVAPLYLKGHSYGEFVFDQTFARLAGDLGLRYYPKLLGMSPVSPVLGYRFHVLPGEDEAELTAVLLRAIDAFCEHNSILSCNFLYVDPQWRPLAEAAGCATWLNQQSLWSRGDDQSFDDYLNGFNANQRRNIKRERKAVAKAGLTVTPLTGEQLDLELFQIMHGFYEQHCARWGPWGSKYLEQGFFEALAGLHREQVVLFSAHRGDPREPVAMSMCVRDDHHLWGRYWGSEEEIDCLHFEVCYYAPIEWAISQGIDSFDPGAGGSHKRRRGFVARPHASLHRWYQPQMDGLIRAWLPKVNGLMLEEIEAINAELPFKADAPSLSL”, which protein production is on record?
**A.** The protein production was “failed”.

**Q.** Which protein production does the source give for “MSSMYTTFAEQYDNVVQDNIYNAYLERPSLQAMLGDVNGCDVIDLGCGSGVYADYFIHRGVAKLTCIDYSPNMIEIVKRKFGDRVTAYAQDASIGLIKEASESADLIISPLMIHYLEDLSVLFNDVARVLKNGGNFAFSTHHPFADFECTLSGNYFEREFITEMWNTVGEPVEVTFYRRSLTEIMNAITDSGLVVTQLSEGKVAEEVKQISLEKYEYLSKNPNFIFIKCQKLV” here?
**A.** Its protein production is “failed”.

**Q.** Which protein production does the source give for “MSSNAQVRPPLPPFTRESAIEKIRLAEDGWNSRDPERVSLAYTLDTQWRNRAEFAHNREEAKAFLTRKWAKELDYRLIKELWAFTDNRIAVRYAYEWHDDSGNWFRSYGNENWEFDEQGLMARRFACINDMPIKAQERKFHWPLGRRPDDHPGLSELGLLEHHHHHH” here?
**A.** Its protein production is “not failed”.

**Q.** For “MSSNMQQTINVWDPLIRIFHWSLVGFFTLAYLTEGEDEWMNIHSYAGYSILTLLVFRLLWGVIGTHHARFNHFITRPSIAWTYLKQLFSGNAKDYIGHNPAGALMIIALITSIAVAGFSGMALYATDSQGPLATSFFATWPEGALKEVHEFFANFSLFLIATHIGGVIVSSLLHKENLIRAMVTGKKQRPLIQQDERQ”, which protein production is on record?
**A.** Its protein production is “failed”.

**Q.** For “MSSPAILLFDIDGVIRDVAGSYRRALQVTVEHYSGWQPMAADIDALKAEGCWNNDWDASLELLRRHENDVPSRSELIEVFSGFYFGGDPEGDPAEWQGFIGDEPLLVTRAFFDELTRHDIRWGFVSGAEPPSARYVLQQRLDLKDPPLIAMGDAPDKPDPTGLIRLAEQMAAGEVPHWIAYIGDTVADVQTVLNARKRRPELPWRSLAVAPPHVTDVSTYHRQLQDAGADRIVGATRELLPMLLDELA”, which protein production is on record?
**A.** Its protein production is “failed”.

**Q.** Which protein production does the source give for “MSSPARSPSVGGATPKQGARTPTRGIASQDVETPMRMGPGRAVRPSDNISLPPTSPGNISLPATSPARGLGANMSEIDLSSPLNYGTPSSMGSIRTPRSGIRGTPLRARPDIRTDKRIRQVAIGGGSGLEPIPEKGSETTDPVSESSQAPQLVVWGTNVVVSQCKSKFKSFIMRFIDPSAEQDEISENIDVNQPLYLQKLEEIHTLEEPYLNLNCAHLKTFDQDLYRQLICYPQEVIPGFDMAINEMFFERYPAALLEHQIQVRPFNADKTRNMRSLNPEDMDQLISISGMVIRSSNVIPEMREAFFSCNICSFSTTVEVDRGRINQPTLCTNCNTNHCFRLIHNRSEFTDKQLVKLQESPDDMAAGQTPHNVLLYAHNDLVDKVQPGDRVTVTGIYRATPLKTGGLSSSVKSVYKTHVDVVHFRKVDNKRLYEDEEGKDHIFPPERVELLQLLAKKPDIYDRLARAIAPSIYENDDIKKGILLQLFGGTKKKHATLGRQNFRSEIHLLLCGDPGTSKSQMLQYVFNLVPRSQYTSGRGSSAVGLTAYVTKDPETRQLVLQTGALVLADNGVCCIDEFDKMNDSTRSVLHEVMEQQTLSIAKAGIICQLNARTSILAAANPAESQWNKRKNIIDNVQLPHTLLSRFDLIFLVLDPQDEIFDKRLASHLVSLYYVTRHEEEDTMFDMSVLRDYIAYAREHLSPTLSDEAQQRLIQAYVDMRKVGAGRGQISAYPRQLESLIRLSEAHAKVRLSNQVELLDVEEAWRLHREALKQSATDPLSGKIDVGILTTGLSTAARKKRADLVAAIKENLKKKGKVLTVPYQKLFSDIKEGSQIMITREQFEDALKEVQDEGAIVVMGKNTIRIC” here?
**A.** Its protein production is “failed”.

**Q.** For “MSSPKISIIIPVYMAESYLHRCVDSIITQTFTDWELLLVDDGSPDHSGELCEKYASAYKSRIKAFHKPNGGVASAREFGMQQARGEYSIHVDPDDWIDSNTLEELYQQAVKEQADMVICDFMMEYPNRQIHNCQKPQLLDSSSFMHQLLQQERHGSLCNKLIRTELYHKYQLHFPEKMICWEDLYICCSILLHGCKLAYVPHALYHYDFYTNDNSMVRHTDMRGLQAQIDFCRLMQAKISPEYLPELNELKGITLITAFRNQLLNEQAIRSLFPEINDWYVTRYGHDYEKSNYYGLTLVLRGYNFKTARRRMFVAKFLVQIKNKITRMLLEHHHHHH”, which protein production is on record?
**A.** The protein production was “not failed”.

**Q.** For “MSSPSEFPLSEAPQSARKGLLPIAMVLFSFTFFTGTMFAGGKLGMAFSFVDMLWVATLGNSLLALYAAALAFIASRSGLNTVLMGRFCFGEAGSRLSDFLLGFAELGWYAWGTATVAIVLVKLLGLADGFGMPLMVLFGLGFSITAIIGFKGLDLLSRVSVPLMFVLLLVSMYIATRDAGGFAGLAAVVPHETMTFSAAVTMVFGTFASGATQATNWTRLARSGRVAVIASGVAFLLGNGLMVVAGAWCAMVYQQADIVDVMMLQGLSFAAVVMLCLNLWTIQGPTIYNVSAAACHLLRSERRRTATLVAAGVGIVLAMGGMYEMLIPFLVLLGSIIPPVGGVIMADFWYRHRGKYPPLCTANLPRYNLTGLFAYAVGAVLAYASPWVAPLVGIAASAVCYIVILELGARRRAPGQAGVEP”, which protein production is on record?
**A.** The protein production was “failed”.
